Holding throughout (assay): Kinase Profiling Assay
Assay type in all cases: biochemical

The target in one assay is CaMKI(h) (Homo sapiens, UniProt Q14012). The settings on record: for CaMKI(h) % activity: 100 μM peptide. An outline of the steps: (§1)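 In duplicate, the activities of 266 available human kinases were determined with MK2 inhibitory peptides present, as a measure of peptide selectivity.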
The next assay addresses TrkB(h) (Homo sapiens, UniProt Q16620). Conditions: for TrkB(h) % activity: 100 μM peptide. Put shortly: as §1
The target in another assay is T1, DMPK(h) (Homo sapiens, UniProt Q09013).
T1 sequence (Q09013 1-629): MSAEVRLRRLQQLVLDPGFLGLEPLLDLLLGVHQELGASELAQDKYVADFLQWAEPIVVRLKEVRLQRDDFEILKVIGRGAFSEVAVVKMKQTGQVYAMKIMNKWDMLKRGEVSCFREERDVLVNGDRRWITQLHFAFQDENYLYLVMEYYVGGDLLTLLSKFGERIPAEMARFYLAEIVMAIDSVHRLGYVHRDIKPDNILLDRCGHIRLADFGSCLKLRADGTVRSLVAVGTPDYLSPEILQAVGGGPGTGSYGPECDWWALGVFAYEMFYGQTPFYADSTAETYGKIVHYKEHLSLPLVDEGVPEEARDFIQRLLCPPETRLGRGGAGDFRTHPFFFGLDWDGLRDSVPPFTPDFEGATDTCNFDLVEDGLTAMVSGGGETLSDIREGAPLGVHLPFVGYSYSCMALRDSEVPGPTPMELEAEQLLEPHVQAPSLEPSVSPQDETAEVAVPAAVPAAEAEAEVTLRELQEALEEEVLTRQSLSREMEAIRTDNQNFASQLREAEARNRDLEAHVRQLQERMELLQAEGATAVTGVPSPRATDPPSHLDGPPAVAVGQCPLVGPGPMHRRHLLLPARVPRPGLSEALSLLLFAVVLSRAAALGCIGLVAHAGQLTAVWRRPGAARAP
The settings on record: 100 μM peptide. Put shortly: as §1

Another assay concerns the target EphA7(h) (Homo sapiens, UniProt Q15375). Conditions: 100 μM peptide. Put shortly: as §1
For another assay, the target named is T2, MST2(h) (Homo sapiens, UniProt Q13188).
T2 sequence (Q13188 1-491): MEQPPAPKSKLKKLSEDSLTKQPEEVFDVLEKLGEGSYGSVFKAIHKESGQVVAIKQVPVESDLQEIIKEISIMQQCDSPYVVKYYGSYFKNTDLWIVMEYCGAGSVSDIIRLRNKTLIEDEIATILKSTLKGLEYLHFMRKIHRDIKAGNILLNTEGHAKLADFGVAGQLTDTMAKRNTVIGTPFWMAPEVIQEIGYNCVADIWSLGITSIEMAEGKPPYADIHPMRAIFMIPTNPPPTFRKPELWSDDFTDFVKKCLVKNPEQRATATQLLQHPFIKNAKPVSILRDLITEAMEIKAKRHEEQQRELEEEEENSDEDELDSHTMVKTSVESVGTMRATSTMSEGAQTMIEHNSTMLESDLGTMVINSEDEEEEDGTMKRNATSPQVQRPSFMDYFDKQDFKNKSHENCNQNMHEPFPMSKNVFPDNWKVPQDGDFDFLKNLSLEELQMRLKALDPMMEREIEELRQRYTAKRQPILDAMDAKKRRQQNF
The settings on record: 100 μM peptide. Put shortly: as §1

Another assay addresses PKBα(h) (Homo sapiens, UniProt P31749). The settings on record: 100 μM peptide. Put shortly:
as §1

For the next assay, the target named is PKCβII(h) (Homo sapiens, UniProt P05771). The settings on record: 100 μM peptide. An outline of the steps:
as §1

The target of a further assay is T3, PKD2(h) (Homo sapiens, UniProt Q9BZL6).
T3 construct: purchased Millipore (IC50 Profiler Express service)
T3 sequence (Q9BZL6 1-878): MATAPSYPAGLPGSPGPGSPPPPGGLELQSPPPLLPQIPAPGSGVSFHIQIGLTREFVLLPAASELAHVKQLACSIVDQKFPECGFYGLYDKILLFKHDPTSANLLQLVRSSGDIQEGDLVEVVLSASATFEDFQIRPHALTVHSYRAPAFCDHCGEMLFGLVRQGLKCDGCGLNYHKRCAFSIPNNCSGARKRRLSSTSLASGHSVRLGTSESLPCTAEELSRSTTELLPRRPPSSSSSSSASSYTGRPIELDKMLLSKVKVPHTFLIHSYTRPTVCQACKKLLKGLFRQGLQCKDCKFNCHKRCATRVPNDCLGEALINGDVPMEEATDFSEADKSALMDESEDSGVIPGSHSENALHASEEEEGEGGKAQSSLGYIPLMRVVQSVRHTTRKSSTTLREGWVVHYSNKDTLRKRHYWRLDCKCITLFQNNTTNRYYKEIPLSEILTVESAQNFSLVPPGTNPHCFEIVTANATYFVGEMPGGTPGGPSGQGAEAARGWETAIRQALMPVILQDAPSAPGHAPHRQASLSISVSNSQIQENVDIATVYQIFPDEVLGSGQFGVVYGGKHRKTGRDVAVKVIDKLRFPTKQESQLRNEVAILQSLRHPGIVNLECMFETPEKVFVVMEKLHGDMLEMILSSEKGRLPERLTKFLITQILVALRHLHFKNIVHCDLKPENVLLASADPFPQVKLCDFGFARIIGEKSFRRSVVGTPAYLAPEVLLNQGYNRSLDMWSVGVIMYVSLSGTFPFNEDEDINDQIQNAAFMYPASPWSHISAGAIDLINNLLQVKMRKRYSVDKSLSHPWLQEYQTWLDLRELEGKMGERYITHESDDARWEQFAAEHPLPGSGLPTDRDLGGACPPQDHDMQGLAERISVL
The settings on record: 100 μM peptide. Put shortly: as §1

Another assay deals with T4, RIPK2(h) (Homo sapiens, UniProt O43353).
T4 construct: purchased Millipore (IC50 Profiler Express service)
T4 sequence (O43353 whole entry): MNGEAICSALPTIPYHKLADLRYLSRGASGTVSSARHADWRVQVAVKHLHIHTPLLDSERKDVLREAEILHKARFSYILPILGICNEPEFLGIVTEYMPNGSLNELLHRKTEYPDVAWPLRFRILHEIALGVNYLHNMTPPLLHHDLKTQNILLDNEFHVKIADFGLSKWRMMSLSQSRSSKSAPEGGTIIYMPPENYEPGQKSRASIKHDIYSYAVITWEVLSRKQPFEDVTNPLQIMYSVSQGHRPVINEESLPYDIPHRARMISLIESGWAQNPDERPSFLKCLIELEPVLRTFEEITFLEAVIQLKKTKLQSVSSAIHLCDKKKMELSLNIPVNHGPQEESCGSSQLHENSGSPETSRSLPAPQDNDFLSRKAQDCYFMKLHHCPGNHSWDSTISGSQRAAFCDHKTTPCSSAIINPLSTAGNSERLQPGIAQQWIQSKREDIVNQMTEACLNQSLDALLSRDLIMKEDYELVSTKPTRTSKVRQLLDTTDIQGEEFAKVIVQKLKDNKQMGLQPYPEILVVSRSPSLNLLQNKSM
The settings on record: 100 μM peptide. Put shortly:
as §1

The target of another assay is Rsk3(h) (Homo sapiens, UniProt Q15349). Conditions: 100 μM peptide. An outline of the steps: as §1
Rsk3(h), sequence (Q15349 whole entry): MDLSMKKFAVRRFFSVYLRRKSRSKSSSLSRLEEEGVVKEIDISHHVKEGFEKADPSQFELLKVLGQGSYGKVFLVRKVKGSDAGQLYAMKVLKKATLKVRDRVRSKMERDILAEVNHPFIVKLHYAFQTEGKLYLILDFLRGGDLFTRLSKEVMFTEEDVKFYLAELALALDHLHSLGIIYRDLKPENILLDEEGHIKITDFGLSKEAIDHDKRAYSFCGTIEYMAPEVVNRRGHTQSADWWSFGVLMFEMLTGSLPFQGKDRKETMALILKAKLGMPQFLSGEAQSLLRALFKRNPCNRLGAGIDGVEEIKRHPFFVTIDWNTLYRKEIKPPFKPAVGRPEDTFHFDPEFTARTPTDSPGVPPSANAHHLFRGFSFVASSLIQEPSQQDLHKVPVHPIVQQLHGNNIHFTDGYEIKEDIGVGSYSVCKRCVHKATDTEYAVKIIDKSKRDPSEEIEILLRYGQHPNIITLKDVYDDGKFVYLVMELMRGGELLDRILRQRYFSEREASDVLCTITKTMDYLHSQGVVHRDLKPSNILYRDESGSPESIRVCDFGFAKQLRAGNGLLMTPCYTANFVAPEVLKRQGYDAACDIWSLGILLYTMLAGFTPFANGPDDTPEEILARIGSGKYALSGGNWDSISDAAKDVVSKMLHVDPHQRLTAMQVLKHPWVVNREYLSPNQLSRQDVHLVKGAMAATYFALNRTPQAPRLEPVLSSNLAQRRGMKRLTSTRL
A further assay deals with Tie2(h) (Homo sapiens, UniProt Q02763). Conditions: 100 μM peptide. Put shortly: as §1
In another assay the target is ZIPK(h) (Homo sapiens, UniProt O43293). Conditions: 100 μM peptide. Put shortly:
as §1

The next assay deals with Met(Y1248H)(h) (Homo sapiens, UniProt P08581, Y1230H). Conditions: 100 μM peptide. An outline of the steps: as §1

As a reminder, the inhibition is the relative decrease from the control value, in per cent.

Where a SMILES comes first, the peptide text is derived from it. Some results are limits rather than exact numbers.

PKBα(h), sequence (P31749 whole entry): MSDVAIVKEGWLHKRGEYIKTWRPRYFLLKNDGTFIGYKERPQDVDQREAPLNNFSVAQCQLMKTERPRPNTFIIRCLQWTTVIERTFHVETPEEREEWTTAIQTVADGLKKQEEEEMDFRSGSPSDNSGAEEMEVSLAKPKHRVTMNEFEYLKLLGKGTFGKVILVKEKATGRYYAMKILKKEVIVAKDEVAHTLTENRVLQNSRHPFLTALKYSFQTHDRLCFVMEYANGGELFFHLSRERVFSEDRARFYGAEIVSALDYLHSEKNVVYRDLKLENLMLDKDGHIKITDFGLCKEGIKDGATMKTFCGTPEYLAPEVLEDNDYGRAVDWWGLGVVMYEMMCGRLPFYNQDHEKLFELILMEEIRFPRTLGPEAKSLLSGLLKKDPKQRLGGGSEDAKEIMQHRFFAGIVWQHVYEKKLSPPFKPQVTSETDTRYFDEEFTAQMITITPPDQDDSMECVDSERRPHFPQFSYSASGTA
ZIPK(h), sequence (O43293 whole entry): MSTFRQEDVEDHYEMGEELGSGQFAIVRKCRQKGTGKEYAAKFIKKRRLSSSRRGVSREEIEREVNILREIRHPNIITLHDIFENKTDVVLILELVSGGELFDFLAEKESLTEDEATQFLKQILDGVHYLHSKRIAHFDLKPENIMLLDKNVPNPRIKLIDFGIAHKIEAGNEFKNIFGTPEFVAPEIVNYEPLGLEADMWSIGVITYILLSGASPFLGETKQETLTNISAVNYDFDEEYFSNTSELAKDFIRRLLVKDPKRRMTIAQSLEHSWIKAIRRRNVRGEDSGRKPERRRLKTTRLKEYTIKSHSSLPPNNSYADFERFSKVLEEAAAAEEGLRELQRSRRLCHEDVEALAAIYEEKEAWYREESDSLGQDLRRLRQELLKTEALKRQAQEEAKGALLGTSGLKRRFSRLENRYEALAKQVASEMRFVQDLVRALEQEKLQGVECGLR
PKCβII(h), sequence (P05771 1-673 isoform P05771-2): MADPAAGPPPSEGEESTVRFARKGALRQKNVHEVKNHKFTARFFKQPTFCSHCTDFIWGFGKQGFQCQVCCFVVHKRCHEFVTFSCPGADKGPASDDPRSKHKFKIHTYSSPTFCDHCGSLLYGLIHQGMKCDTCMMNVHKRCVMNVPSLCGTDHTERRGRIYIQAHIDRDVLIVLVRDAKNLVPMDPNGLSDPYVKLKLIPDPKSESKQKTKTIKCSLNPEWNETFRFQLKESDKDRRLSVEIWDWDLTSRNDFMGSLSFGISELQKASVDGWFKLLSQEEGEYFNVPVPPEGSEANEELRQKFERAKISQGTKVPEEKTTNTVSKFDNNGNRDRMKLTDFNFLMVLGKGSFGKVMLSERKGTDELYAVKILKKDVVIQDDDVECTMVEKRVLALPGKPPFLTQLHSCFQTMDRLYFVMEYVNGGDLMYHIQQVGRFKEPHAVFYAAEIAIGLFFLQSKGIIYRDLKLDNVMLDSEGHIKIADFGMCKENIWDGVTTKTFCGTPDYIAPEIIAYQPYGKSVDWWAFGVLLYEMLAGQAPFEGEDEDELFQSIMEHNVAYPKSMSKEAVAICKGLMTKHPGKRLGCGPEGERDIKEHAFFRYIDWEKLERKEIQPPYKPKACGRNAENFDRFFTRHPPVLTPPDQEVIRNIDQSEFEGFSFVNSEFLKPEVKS
CaMKI(h), sequence (Q14012 whole entry): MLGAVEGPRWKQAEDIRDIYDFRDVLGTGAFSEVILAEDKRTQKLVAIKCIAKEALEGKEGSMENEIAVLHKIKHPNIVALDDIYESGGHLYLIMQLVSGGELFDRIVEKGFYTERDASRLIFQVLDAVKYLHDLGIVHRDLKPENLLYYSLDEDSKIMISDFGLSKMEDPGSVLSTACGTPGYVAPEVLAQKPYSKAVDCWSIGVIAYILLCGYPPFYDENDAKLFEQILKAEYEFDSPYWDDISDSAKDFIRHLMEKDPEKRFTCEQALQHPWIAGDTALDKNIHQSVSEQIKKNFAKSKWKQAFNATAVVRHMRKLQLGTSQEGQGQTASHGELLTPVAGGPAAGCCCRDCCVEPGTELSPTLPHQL
EphA7(h), sequence (Q15375 28-998): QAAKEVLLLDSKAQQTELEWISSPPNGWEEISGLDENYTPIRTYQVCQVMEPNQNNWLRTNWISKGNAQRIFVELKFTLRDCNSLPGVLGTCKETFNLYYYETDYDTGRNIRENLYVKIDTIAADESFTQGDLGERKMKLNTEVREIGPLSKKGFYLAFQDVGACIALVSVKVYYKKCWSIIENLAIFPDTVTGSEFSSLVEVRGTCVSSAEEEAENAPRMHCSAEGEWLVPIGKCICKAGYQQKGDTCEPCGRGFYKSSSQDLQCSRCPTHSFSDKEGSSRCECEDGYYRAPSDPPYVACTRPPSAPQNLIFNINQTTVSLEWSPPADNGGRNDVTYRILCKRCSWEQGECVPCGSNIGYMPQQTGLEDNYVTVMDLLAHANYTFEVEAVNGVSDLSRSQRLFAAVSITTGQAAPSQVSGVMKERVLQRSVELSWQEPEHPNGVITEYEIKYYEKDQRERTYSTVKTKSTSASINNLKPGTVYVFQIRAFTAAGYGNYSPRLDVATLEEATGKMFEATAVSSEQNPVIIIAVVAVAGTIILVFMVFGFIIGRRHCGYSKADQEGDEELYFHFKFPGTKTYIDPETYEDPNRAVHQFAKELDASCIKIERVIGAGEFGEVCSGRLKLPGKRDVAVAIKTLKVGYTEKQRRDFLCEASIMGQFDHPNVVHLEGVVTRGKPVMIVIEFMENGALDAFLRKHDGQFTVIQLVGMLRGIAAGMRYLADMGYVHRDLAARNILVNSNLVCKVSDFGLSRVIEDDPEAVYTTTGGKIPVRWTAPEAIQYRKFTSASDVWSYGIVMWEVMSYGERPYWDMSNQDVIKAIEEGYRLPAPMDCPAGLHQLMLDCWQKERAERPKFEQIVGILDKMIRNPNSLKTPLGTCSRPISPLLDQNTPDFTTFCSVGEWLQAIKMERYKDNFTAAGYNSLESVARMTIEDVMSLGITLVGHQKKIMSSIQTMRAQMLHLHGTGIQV

For `CC(C)C[C@H](NC(=O)[C@H](C)NC(=O)[C@H](CCCCN)NC(=O)[C@H](C)NC(=O)[C@H](CCCNC(=N)N)NC(=O)[C@H](C)NC(=O)[C@H](CCC(N)=O)NC(=O)[C@H](CCCNC(=N)N)NC(=O)[C@H](C)NC(=O)[C@H](C)NC(=O)[C@H](C)NC(=O)[C@H](CCCNC(=N)N)NC(=O)[C@H](C)NC(=O)[C@@H](N)Cc1ccc(O)cc1)C(=O)N[C@@H](C)C(=O)N[C@@H](CCCNC(=N)N)C(=O)N[C@@H](CCC(N)=O)C(=O)N[C@@H](CC(C)C)C(=O)NCC(=O)N[C@H](C(=O)N[C@@H](C)C(=O)N[C@@H](C)C(=O)O)C(C)C` [MMI-0100] (H-YARAAARQARAKALARQLGVAA-OH; N-terminus and C-terminus assumed), the inhibition at 100 µM on CaMKI(h) (read-out: inhibition of kinase activity of CaMKI) and on TrkB(h) (read-out: inhibition of kinase activity of TrkB) was above 65% in each case.
FAKLAARLYRKALARQLGVAA [MMI-0300]: in the assay with CaMKI(h), the “CaMKI(h) % activity” value is on record as 1%. Besides, in the assay with DMPK(h), the “DMPK(h) % activity” value is reported as 59%. For the same compound, in the assay with EphA7(h), the “EphA7(h) % activity” value is given as 159%. Besides, the “MST2(h) % activity” value in the assay with MST2(h) was 19%. Besides, in the assay with PKBα(h), the “PKBα(h) % activity” value came out at 57%. Further, the “PKCβII(h) % activity” value with PKCβII(h) was found to be 82%. Moreover, the “PKD2(h) % activity” value with PKD2(h) is on record as 33%. Moreover, the “RIPK2(h) % activity” value in the assay with RIPK2(h) is reported as 97%. Also, the “Rsk3(h) % activity” value in the assay with Rsk3(h) came out at 76%. Besides, in the assay with Tie2(h), the “Tie2(h) % activity” value turned out to be 26%. Also, in the assay with TrkB(h), the “TrkB(h) % activity” value was 5%. Also, the “ZIPK(h) % activity” value with ZIPK(h) was determined as 28%.
With KAFAKLAARLYRKALARQLGVAA [MMI-0400], the “CaMKI(h) % activity” value with CaMKI(h) was found to be 0%. The “DMPK(h) % activity” value with DMPK(h) is listed as 54%. The “EphA7(h) % activity” value with EphA7(h) amounted to 222%. In addition, the “MST2(h) % activity” value with MST2(h) is given as 11%. The “Met(Y1248H)(h) % activity” value with Met(Y1248H)(h) amounted to 63%. For the same compound, the “PKBα(h) % activity” value with PKBα(h) came out at 67%. Also, the “PKCβII(h) % activity” value with PKCβII(h) amounted to 75%. The “PKD2(h) % activity” value in the assay with PKD2(h) was 25%. Moreover, the “RIPK2(h) % activity” value in the assay with RIPK2(h) was 98%. Besides, in the assay with Rsk3(h), the “Rsk3(h) % activity” value was determined as 71%. Besides, the “Tie2(h) % activity” value with Tie2(h) is on record as 21%. Further, the “TrkB(h) % activity” value in the assay with TrkB(h) was found to be 8%. Further, the “ZIPK(h) % activity” value with ZIPK(h) is 13%.
With “HRRIKAWLKKIKALARQLGVAA (Mammalian) [MMI-0500]”, the “CaMKI(h) % activity” value in the assay with CaMKI(h) is reported as −1%. Moreover, the “DMPK(h) % activity” value with DMPK(h) is 12%. The “EphA7(h) % activity” value in the assay with EphA7(h) turned out to be 189%. The “MST2(h) % activity” value with MST2(h) is on record as 2%. The “Met(Y1248H)(h) % activity” value in the assay with Met(Y1248H)(h) worked out at 126%. In the assay with PKBα(h), the “PKBα(h) % activity” value came out at 30%. Also, the “PKCβII(h) % activity” value in the assay with PKCβII(h) came out at 3%. The “PKD2(h) % activity” value with PKD2(h) was 10%. In addition, the “RIPK2(h) % activity” value with RIPK2(h) stood at 30%. Also, the “Rsk3(h) % activity” value with Rsk3(h) was 23%. In the assay with Tie2(h), the “Tie2(h) % activity” value came out at 22%. Moreover, in the assay with TrkB(h), the “TrkB(h) % activity” value was determined as 12%. The “ZIPK(h) % activity” value with ZIPK(h) was determined as 1%.
As to “YARAAARQARAKALNRQLGVA (Mammalian) [MMI-0200]”, in the assay with CaMKI(h), the “CaMKI(h) % activity” value stood at 21%. In addition, in the assay with DMPK(h), the “DMPK(h) % activity” value was 66%. The “EphA7(h) % activity” value with EphA7(h) was found to be 220%. Further, in the assay with Met(Y1248H)(h), the “Met(Y1248H)(h) % activity” value came to 153%. The “PKBα(h) % activity” value in the assay with PKBα(h) worked out at 110%. Moreover, in the assay with PKCβII(h), the “PKCβII(h) % activity” value stood at 100%. Further, the “PKD2(h) % activity” value in the assay with PKD2(h) was 78%. In addition, the “RIPK2(h) % activity” value in the assay with RIPK2(h) came to 98%. The “Tie2(h) % activity” value with Tie2(h) was 53%. Moreover, the “TrkB(h) % activity” value in the assay with TrkB(h) is 7%. In the assay with ZIPK(h), the “ZIPK(h) % activity” value was determined as 67%.

For the origin of these results see US10562947B2, “Compositions and methods for preventing or treating diseases, conditions or processes characterized by aberrant fibroblast proliferation and extracellular matrix deposition” (MOERAE MATRIX, INC., priority 2011, dated 2020).
